The subject of series [1] is peptide #11 (Optimized PKCβ Sub.), alanine-substituted, in PKCα FRET sensor.
For series [2], the system named is peptide #14, aspartic acid-containing (phosphomimetic).
Series [3] concerns peptide #14 (PKCα pseudosubstrate), alanine-containing.

The record followed here is patent US20200181677.

As to human PKCα catalytic domain, in series [1], the “kinase activity of the 10 nm peptide FRET sensor for the same substrate” value is “the higher affinity peptide sensor (#11) had a much lower activity than the lower affinity peptide sensor (#8)”. Besides, the “ATP turnover of the catalytic domain for serine-containing peptide #14 with equimolar competitor peptide” value in series [2] was “the alanine-substituted peptide was significantly better at inhibiting catalytic activity”. In series [3], the “ATP turnover of the catalytic domain for serine-containing peptide #14 with equimolar competitor peptide” value was “the alanine-substituted peptide was significantly better at inhibiting catalytic activity” and the “basal kinase activity of the sensor (10 nm vs 30 nm ER/K linker) for the same substrate peptide” value is given as “the sensor with the 30 nm linker had significantly higher activity than the 10 nm linker for the same substrate peptide”.
